According to US20190048095A1 (BIO THERA SOLUTIONS, published 2019):

T1: TROP2 (TACSTD2), on TROP2 positive human tumor cell lines MDA-MB-468, A431 and N87 (human, UniProt P09758 27-323)
T1 sequence (looked up): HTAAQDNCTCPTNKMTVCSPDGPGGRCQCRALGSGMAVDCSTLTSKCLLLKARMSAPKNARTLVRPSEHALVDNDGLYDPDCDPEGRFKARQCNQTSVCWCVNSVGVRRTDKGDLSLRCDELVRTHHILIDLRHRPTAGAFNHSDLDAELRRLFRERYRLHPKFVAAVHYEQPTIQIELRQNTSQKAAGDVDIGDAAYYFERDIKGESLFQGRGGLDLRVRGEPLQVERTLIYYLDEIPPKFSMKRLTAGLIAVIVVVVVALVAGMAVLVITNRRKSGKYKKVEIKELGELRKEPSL

B1: Batansine-0806 (anti-TROP2 antibody BAT0806 conjugated with 3AA-MDC) (antibody)
light: DIQLTQSPSSLSASVGDRVSITCKASQDVSIAVAWYQQKPGKAPKLLIYSASYRYTGVPDRFSGSGSGTDFTLTISSLQPEDFAVYYCQQHYITPLTFGAGTKVEIKRTVAAPSVFIFPPSDEQLKSGTASVVCLLNNFYPREAKVQWKVDNALQSGNSQESVTEQDSKDSTYSLSSTLTLSKADYEKHKVYACEVTHQGLSSPVTKSFNRGEC
heavy: not shown
modifications: 3AA-MDC (batansine maytansinoid-linker) on cysteine thiols freed by partial TCEP reduction; positions not given
B2: Batansine-0807 (anti-TROP2 antibody BAT0807 conjugated with 3AA-MDC) (antibody, human IgG1, kappa)
light: DIQLTQSPSSLSASVGDRVSITCKASQDVSIAVAWYQQKPGKAPKLLIYSASYRYTGVPDRFSGSGSGTDFTLTISSLQPEDFAVYYCQQHYITPLTFGAGTKVEIKRTVAAPSVFIFPPSDEQLKSGTASVVCLLNNFYPREAKVQWKVDNALQSGNSQESVTEQDSKDSTYSLSSTLTLSKADYEKHKVYACEVTHQGLSSPVTKSFNRGEC
heavy: not shown
modifications: 3AA-MDC on site-mutated (engineered) cysteine(s); position not printed for this antibody
B3: Batansine-0808 (anti-TROP2 antibody BAT0808 conjugated with 3AA-MDC) (antibody, human IgG1, kappa)
light: DIQLTQSPSSLSASVGDRVSITCKASQDVSIAVAWYQQKPGKAPKLLIYSASYRYTGVPDRFSGSGSGTDFTLTISSLQPEDFAVYYCQQHYITPLTFGAGTKVEIKRTVAAPSVFIFPPSDEQLKSGTASVVCLLNNFYPREAKVQWKVDNALQSGNSQESVTEQDSKDSTYSLSSTLTLSKADYEKHKVYACEVTHQGLSSPVTKSFNRGEC
heavy: not shown
modifications: 3AA-MDC on site-mutated (engineered) cysteine(s); position not printed for this antibody; glycan with fucose content of 0-5%
B4: BAT0806-CL2A-SN-38 (anti-TROP2 antibody BAT0806 conjugated with CL2A-SN-38) (antibody, human IgG1, kappa)
light: DIQLTQSPSSLSASVGDRVSITCKASQDVSIAVAWYQQKPGKAPKLLIYSASYRYTGVPDRFSGSGSGTDFTLTISSLQPEDFAVYYCQQHYITPLTFGAGTKVEIKRTVAAPSVFIFPPSDEQLKSGTASVVCLLNNFYPREAKVQWKVDNALQSGNSQESVTEQDSKDSTYSLSSTLTLSKADYEKHKVYACEVTHQGLSSPVTKSFNRGEC
heavy: not shown
modifications: CL2A-SN-38 on cysteine thiols freed by TCEP reduction; positions not given

How the values were obtained:
[1] = target: T1, TROP2 (TACSTD2), on TROP2 positive …; assay: cell-based or functional assay
[2] = target: T1, TROP2 (TACSTD2), on TROP2 positive …; assay: cell-based or functional assay; remark: listed apart in the source

| Binder | EC50 (nM), synergistic ADCC, A431 with PBMC (PBMC cell:target cell 10:1) [1] | EC50, proliferation inhibition of A431 cells (CCK8, 72 h) [2] | EC50, proliferation inhibition of MDA-MB-468 cells (CCK8, 72 h) [2] | EC50, proliferation inhibition of N87 cells (CCK8, 72 h) [2] | EC50 (nM), cell proliferation, A431 [1] | EC50 (nM), cell proliferation, MDA-MB-468 [1] | EC50 (nM), cell proliferation, N87 [1] | EC50 (nM), synergistic ADCC, A431 with PBMC (PBMC cell:target cell 5:1) [1] |
| --- | --- | --- | --- | --- | --- | --- | --- | --- |
| B1 | 0.006 nM | 0.53 nM | 3.21 nM | 0.34 nM |  |  |  |  |
| B2 | 0.011 nM | 1.73 nM | 2.89 nM | 0.77 nM |  |  |  |  |
| B3 | 0.001 nM | 1.53 nM | 5.61 nM | 1.47 nM | 2.89 nM | 1.95 nM | 0.56 nM |  |
| B4 |  |  |  |  | 1.26 nM | 1.84 nM | 1.84 nM | 0.143 nM |
